This note sets out measurements from the RNAGym collection of RNA variant scans (doi:10.1093/molbev/msab373).

Sequences and labels used below:
B1: Azoarcus group I ribozyme (parent)
chain: GUGCCUUGCGCCGGGAAACCACGCAAGGGAUGGUGUCAAAUUCGGCGAAACCUAAGCGCCCGCCCGGGCGUAUGGCAACGCCGAGCCAAGCUUCGGCGCCUGCGCCGAUGAAGGUGUAGAGACUAGACGGCACCCACCUAAGGCAAACGCUAUGGUGAAGGCAUAGUCCAGGGAGUGGCGAAAGUCACACAAACCGG

The variants in this data set derive from B1. The data set is described as follows: reverse-splicing fitness (ratio to wild type); higher = more active; in vitro selection; Mg2+ level not given. Summed up:
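An in vitro group I ribozyme library with randomized positions was T7-transcribed and gel-purified. In triplicate, 10 pmol RNA in EPPS pH 7.5 was reacted with 50 pmoles of a 30-nt RNA substrate for 1 h at 37 °C across several added MgCl2 levels (1–48 mM), then stopped with EDTA. Products were reverse transcribed from a substrate-complementary primer, PCR-amplified and sequenced (HiSeq 4000). Fitness is a variant's read proportion after selection over that before, normalised to wild type.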
Turning to C82G A111G A120U A145U C150G C169G, the reverse-splicing fitness was determined as 0.003.
Turning to C82G A111G A120U A145U C150G C169G U176C, the reverse-splicing fitness came out at 0.00256.
As to C82G A111G A120U A145U C150G C169G U176G, the reverse-splicing fitness is 0.00197.
The figure for C82G A111G A120U A145U C150G C169G U176A is 0.0025.
The figure for C82G A111G A120U A145U is 0.0713; for C82G A111G A120U A145U C150G C169A U176G it is 0.00219.
The figure for C82G A111G A120U A145U C150G C169A U176C is 0.00298; for C82G A111G A120U A145U C150G C169A U176A it is 0.00415.
Turning to C82G A111G A120U A145U C150A C169U U176C, the reverse-splicing fitness was 0.0029.
For the variant C82G A111G A120U A145U C150A C169U U176A, the reverse-splicing fitness stood at 0.00305.
The figure for C82G A111G A120U A145U C150A C169U U176G is 0.00215; for C82G A111G A120U A145U C150A C169G U176A it is 0.00229; for C82G A111G A120U A145U C150A C169G U176G it is 0.00181.
With C82G A111G A120U A145U C150A C169G U176C, the reverse-splicing fitness came out at 0.00301.
Turning to C82G A111G A120U A145U C150U C169G U176C, the reverse-splicing fitness was determined as 0.00343.
For the variant C82G A111G A120U A145U C150U C169G U176G, the reverse-splicing fitness came to 0.00218.
For C82G A111G A120U A145U C150U C169G U176A, the reverse-splicing fitness worked out at 0.0031.
Consider C82G A111G A120U A145U U176C, for which the reverse-splicing fitness amounted to 0.0296.
The figure for C82G A111G A120U A145U U176G is 0.00582; for C82G A111G A120U A145U U176A it is 0.0168.
Consider C82G A111G A120U C150U C169U U176C, for which the reverse-splicing fitness was 0.0051.
The figure for C82G A111G A120U C150U C169U U176A is 0.00523.
As for C82G A111G A120U C150U C169U U176G, the reverse-splicing fitness turned out to be 0.00214.
C82G A111G A120U A145U C169U U176A: the reverse-splicing fitness amounted to 0.00226.
The figure for C82G A111G A120U A145U C169U U176C is 0.0031; for C82G A111G A120U A145U C169U U176G it is 0.00199.
The figure for C82G A111G A120U A145U C169A is 0.00239; for C82G A111G A120U A145U C169G it is 0.00363; for C82G A111G A120U A145U C169U it is 0.00451.
As to C82G A111G A120U A145U C150A U176A, the reverse-splicing fitness is 0.00578.
The figure for C82G A111G A120U A145U C150A U176C is 0.00553; for C82G A111G A120U A145U C150A U176G it is 0.00244.
Regarding C82G A111G A120U A145U C150G U176G, the reverse-splicing fitness was 0.00264.
The figure for C82G A111G A120U A145U C150G U176A is 0.00457; for C82G A111G A120U A145U C150G U176C it is 0.00556.
The figure for C82G A111G A120U U176G is 0.00562; for C82G A111G A120U U176A it is 0.018; for C82G A111G A120U U176C it is 0.0294.
Consider C82G A111G A120U C169G, for which the reverse-splicing fitness was 0.00481.
The figure for C82G A111G A120U C169A is 0.00418.
For the variant C82G A111G A120U C169U, the reverse-splicing fitness came out at 0.00572.
The figure for C82G A111G A145C C150A is 0.0192.
With C82G A111G A145C C150U, the reverse-splicing fitness stood at 0.0841.
As for C82G A111G A145C C150G, the reverse-splicing fitness was found to be 0.0378.
Take C82G A111G A120U C150U C169A U176A: the reverse-splicing fitness turned out to be 0.00519.
For the variant C82G A111G A120U C150U C169A U176G, the reverse-splicing fitness was 0.00204.
On to C82G A111G A120U C150U C169A U176C, for which the reverse-splicing fitness turned out to be 0.00376.
The figure for C82G A111G A120U C150U is 0.0348; for C82G A111G A120U C150G it is 0.00849.
In the case of C82G A111G A120U C150A, the reverse-splicing fitness was determined as 0.00949.
As to C82G A111G A120U A145U C169A U176G, the reverse-splicing fitness came to 0.0018.
C82G A111G A120U A145U C169A U176A: the reverse-splicing fitness is 0.00206.
The figure for C82G A111G A120U A145U C169A U176C is 0.00207; for C82G A111G A145C C150G U176G it is 0.00683.
The figure for C82G A111G A145C C150G U176A is 0.0197; for C82G A111G A145C C150G U176C it is 0.0294.
The figure for C82G A111G A120U A145U C150G C169U U176C is 0.00309.
In the case of C82G A111G A120U A145U C150G C169U U176G, the reverse-splicing fitness came out at 0.00239.
For C82G A111G A120U A145U C150G C169U U176A, the reverse-splicing fitness stood at 0.00283.
The figure for C82G A111G A145C C150U C169A is 0.00783.
On to C82G A111G A120U C169U U176C, for which the reverse-splicing fitness is 0.0055.
The figure for C82G A111G A120U C169U U176A is 0.00385; for C82G A111G A120U C169U U176G it is 0.00158; for C82G A111G A120U A145U C150U U176G it is 0.00444.
For the variant C82G A111G A120U A145U C150U U176C, the reverse-splicing fitness amounted to 0.0184.
As for C82G A111G A120U A145U C150U U176A, the reverse-splicing fitness was found to be 0.0117.
Take C82G A111G A120U A145U C169G U176C: the reverse-splicing fitness was found to be 0.00235.
The figure for C82G A111G A120U A145U C169G U176A is 0.0022.
The figure for C82G A111G A120U A145U C169G U176G is 0.00156.
The figure for C82G A111G A120U A145U C150A C169A U176A is 0.00256; for C82G A111G A120U A145U C150A C169A U176C it is 0.00223.
C82G A111G A120U A145U C150A C169A U176G: the reverse-splicing fitness was found to be 0.00211.
For C82G A111G A120U C150A U176G, the reverse-splicing fitness stood at 0.00368.
As to C82G A111G A120U C150A U176A, the reverse-splicing fitness was determined as 0.0074.
The figure for C82G A111G A120U C150A U176C is 0.00806; for C82G A111G A120U A145U C150A C169G it is 0.0027; for C82G A111G A120U A145U C150A C169A it is 0.00193.
Take C82G A111G A120U A145U C150A C169U: the reverse-splicing fitness is 0.0024.
The figure for C82G A111G A120U A145U C150U C169U is 0.00393; for C82G A111G A120U A145U C150U C169A it is 0.00289; for C82G A111G A120U A145U C150U C169G it is 0.00324.
The figure for C82G A111G A120U C150A C169U U176G is 0.00229; for C82G A111G A120U C150A C169U U176A it is 0.00523; for C82G A111G A120U C150A C169U U176C it is 0.00456.
